T1: MBP-HAT1 (Arabidopsis thaliana, UniProt P46600 1-282)
T1 construct: HAT1, Arabidopsis thaliana, At4g17460; full-length, in pMALc-B; pMALc-B; also called full-length HAT1
T1 sequence (looked up): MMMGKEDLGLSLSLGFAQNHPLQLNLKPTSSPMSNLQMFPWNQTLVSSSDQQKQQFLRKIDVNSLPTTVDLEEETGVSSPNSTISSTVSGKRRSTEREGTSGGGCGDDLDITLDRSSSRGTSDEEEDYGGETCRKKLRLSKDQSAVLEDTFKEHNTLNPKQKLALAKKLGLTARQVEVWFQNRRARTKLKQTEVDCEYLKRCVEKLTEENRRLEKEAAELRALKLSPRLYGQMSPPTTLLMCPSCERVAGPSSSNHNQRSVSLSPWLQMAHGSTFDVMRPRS

T2: HIS-HAT1 (Arabidopsis thaliana, UniProt P46600 1-282)
T2 construct: HAT1, Arabidopsis thaliana, At4g17460; full-length, in pET28a; pET28a; also called full-length HAT1
T2 sequence (looked up): T1 sequence (looked up)

T3: MBP-TT8 (Arabidopsis thaliana, UniProt Q9FT81 1-518)
T3 construct: TT8, Arabidopsis thaliana, At4g09820; pMAL-C2X
T3 sequence (looked up): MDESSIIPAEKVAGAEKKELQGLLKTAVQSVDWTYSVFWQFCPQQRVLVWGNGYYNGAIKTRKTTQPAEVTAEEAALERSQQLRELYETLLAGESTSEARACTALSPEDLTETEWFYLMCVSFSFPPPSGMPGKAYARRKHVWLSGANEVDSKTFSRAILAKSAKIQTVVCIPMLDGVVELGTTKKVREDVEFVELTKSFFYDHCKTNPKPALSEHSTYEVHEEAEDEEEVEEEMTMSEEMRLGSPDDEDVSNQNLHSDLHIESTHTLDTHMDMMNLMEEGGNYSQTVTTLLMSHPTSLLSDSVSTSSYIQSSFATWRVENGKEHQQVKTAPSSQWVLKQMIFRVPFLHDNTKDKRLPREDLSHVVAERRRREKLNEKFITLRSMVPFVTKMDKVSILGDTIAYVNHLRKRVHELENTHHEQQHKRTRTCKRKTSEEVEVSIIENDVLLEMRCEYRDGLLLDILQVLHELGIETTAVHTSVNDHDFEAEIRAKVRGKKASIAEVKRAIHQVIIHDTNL

T4: MBP-EGL3 (Arabidopsis thaliana, UniProt Q9CAD0 1-596)
T4 construct: EGL3, Arabidopsis thaliana, At1g63650; pMAL-C2X
T4 sequence (looked up): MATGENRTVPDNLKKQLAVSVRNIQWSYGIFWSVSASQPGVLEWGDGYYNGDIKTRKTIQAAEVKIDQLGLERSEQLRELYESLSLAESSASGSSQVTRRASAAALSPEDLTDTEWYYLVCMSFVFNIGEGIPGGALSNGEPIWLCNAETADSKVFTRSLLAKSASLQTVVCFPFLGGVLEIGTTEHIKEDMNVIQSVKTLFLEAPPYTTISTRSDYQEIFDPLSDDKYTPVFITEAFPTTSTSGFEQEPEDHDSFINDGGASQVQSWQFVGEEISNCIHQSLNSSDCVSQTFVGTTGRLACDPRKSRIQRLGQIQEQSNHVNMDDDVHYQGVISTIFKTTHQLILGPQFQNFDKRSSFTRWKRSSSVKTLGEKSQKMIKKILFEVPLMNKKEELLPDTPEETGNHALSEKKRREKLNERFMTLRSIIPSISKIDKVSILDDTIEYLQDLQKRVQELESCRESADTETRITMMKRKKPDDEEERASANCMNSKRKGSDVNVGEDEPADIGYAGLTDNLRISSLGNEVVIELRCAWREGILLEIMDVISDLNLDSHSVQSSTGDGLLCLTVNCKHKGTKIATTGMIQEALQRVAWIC

B1: HAT1 C-terminal fragment (pull-down fragment) (domain or fragment, Arabidopsis thaliana, UniProt P46600 234-282, looked up)
chain: SPPTTLLMCPSCERVAGPSSSNHNQRSVSLSPWLQMAHGSTFDVMRPRS
notes: HAT1, Arabidopsis thaliana, At4g17460; also called C-terminus of HAT1; not shown: 6xHis (inferred from the set-up of the methods)
B2: HIS-MYB75 (natural protein, Arabidopsis thaliana, UniProt Q9FE25 1-248, looked up)
chain: MEGSSKGLRKGAWTTEEDSLLRQCINKYGEGKWHQVPVRAGLNRCRKSCRLRWLNYLKPSIKRGKLSSDEVDLLLRLHRLLGNRWSLIAGRLPGRTANDVKNYWNTHLSKKHEPCCKIKMKKRDITPIPTTPALKNNVYKPRPRSFTVNNDCNHLNAPPKVDVNPPCLGLNINNVCDNSIIYNKDKKKDQLVNNLIDGDNMWLEKFLEESQEVDILVPEATTTEKGDTLAFDVDQLWSLFDGETVKFD
notes: MYB75, Arabidopsis thaliana, At1g56650; full-length, in pET28a; pET28a; also called full-length MYB75
B3: MBP-MYB75 (natural protein, Arabidopsis thaliana, UniProt Q9FE25 1-248, looked up)
chain: B2 chain
notes: MYB75, Arabidopsis thaliana, At1g56650; full-length, in pMAL-C2X; pMAL-C2X; also called full-length MYB75

Key:
Conditions in all cases: both partners purified
MBP-MYB75 = molecular target: B3; test: pull-down; Ni-NTA beads with 5 ug HIS protein incubated with 5 ug MBP protein; 150 mM NaCl, 20 mM Tris, 0.2% Triton X-100, pH 8.0, 4 C, 2 h; anti-MBP blot
MBP-HAT1 = molecular target: T1, MBP-HAT1; test: as above
HIS-HAT1 [1] = molecular target: T2, HIS-HAT1; test: pull-down; competitive HIS pull-down: 5 ug MBP-TT8 or MBP-EGL3 mixed with 5, 10 or 20 ug HIS-HAT1, on Ni-NTA beads with 5 ug HIS-MYB75; 150 mM NaCl, 20 mM Tris, 0.2% Triton X-100, pH 8.0, 4 C, 2 h; anti-MBP blot
MBP-TT8 = molecular target: T3, MBP-TT8; test: as above
MBP-EGL3 = molecular target: T4, MBP-EGL3; test: as above
HIS-HAT1 [2] = molecular target: T2, HIS-HAT1; test: pull-down; Ni-NTA beads with 5 ug HIS protein incubated with 5 ug MBP protein; 150 mM NaCl, 20 mM Tris, 0.2% Triton X-100, pH 8.0, 4 C, 2 h; anti-MBP blot

Binder: B1
- binding result (MBP-MYB75): binds

Binder: B2
- binding result (MBP-HAT1): binds
- binding result (HIS-HAT1 [1]): binds
- binding result (MBP-TT8): binds
- binding result (MBP-EGL3): binds

Binder: B3
- binding result (HIS-HAT1 [2]): binds

— publication PMC6443190, “Regulation of anthocyanin accumulation via MYB75/HAT1/TPL-mediated transcriptional repression” (PLoS Genetics, 2019)
